This is an account of results in doi:10.1101/2020.06.01.127969.

The target in this assay is RNA polymerase II with SNAP-tagged Rpb1 labelled with SNAP-Surface 549 (Rpb1^SNAP549) (S. cerevisiae) (UniProt P04050). The assay can be described thus: CoSMoS.
UniProt P04050, sequence (P04050 whole entry, looked up): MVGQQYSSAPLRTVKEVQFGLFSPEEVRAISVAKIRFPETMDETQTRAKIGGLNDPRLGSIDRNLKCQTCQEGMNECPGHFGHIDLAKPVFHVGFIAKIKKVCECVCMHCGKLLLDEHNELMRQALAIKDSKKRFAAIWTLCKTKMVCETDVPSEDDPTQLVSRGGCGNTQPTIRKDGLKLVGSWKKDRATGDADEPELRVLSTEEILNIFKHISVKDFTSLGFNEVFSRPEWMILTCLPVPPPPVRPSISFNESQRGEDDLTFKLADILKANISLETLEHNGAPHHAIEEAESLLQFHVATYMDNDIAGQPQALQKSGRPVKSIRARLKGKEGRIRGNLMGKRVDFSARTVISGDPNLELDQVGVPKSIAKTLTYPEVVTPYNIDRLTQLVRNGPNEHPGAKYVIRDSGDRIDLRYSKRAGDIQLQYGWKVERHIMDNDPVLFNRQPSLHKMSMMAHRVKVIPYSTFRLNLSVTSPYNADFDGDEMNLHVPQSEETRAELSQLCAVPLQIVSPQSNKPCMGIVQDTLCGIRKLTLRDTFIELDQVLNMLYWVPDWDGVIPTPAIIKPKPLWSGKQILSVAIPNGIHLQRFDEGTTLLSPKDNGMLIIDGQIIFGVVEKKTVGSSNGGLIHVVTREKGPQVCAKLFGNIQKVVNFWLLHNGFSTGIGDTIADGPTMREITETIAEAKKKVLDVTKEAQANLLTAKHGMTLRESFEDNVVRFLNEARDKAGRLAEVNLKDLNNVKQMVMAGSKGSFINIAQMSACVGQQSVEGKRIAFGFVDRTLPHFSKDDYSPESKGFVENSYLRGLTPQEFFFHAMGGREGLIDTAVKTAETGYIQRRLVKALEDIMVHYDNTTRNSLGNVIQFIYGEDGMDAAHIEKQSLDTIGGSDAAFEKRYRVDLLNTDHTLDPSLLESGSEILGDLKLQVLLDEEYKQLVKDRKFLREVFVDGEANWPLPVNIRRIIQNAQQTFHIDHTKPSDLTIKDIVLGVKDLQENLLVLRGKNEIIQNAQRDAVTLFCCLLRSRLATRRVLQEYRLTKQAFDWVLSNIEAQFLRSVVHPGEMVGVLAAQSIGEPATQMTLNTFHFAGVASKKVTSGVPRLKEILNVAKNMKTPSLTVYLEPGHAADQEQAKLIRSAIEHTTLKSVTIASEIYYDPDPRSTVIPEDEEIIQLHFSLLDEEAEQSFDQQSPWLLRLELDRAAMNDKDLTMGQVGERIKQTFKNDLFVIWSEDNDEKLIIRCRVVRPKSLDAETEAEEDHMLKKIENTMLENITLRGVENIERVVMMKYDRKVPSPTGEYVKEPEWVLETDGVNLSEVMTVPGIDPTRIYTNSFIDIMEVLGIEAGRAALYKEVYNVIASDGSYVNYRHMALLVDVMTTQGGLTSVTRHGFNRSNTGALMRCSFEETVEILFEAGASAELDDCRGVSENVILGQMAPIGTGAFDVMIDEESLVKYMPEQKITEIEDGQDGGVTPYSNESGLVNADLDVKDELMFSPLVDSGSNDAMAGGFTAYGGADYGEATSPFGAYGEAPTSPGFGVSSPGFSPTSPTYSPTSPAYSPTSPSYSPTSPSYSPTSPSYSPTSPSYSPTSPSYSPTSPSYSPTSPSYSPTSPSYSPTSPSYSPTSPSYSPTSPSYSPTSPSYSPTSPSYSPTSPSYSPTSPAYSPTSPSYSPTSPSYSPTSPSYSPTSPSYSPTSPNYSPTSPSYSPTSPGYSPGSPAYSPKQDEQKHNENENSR

B1: elongation factor Spt4/5 with DHFR-tagged Spt5 labelled with Cy5-TMP (Spt5^DHFR-Cy5) (complex)
chain 1: MSDNSDTNVSMQDHDQQFADPVVVPQSTDTKDENTSDKDTVDSGNVTTTESTERAESTSNIPPLDGEEKEAKSEPQQPEDNAETAATEQVSSSNGPATDDAQATLNTDSSEANEIVKKEEGSDERKRPREEDTKNSDGDTKDEGDNKDEDDDEDDDDDDDDEDDDDEAPTKRRRQERNRFLDIEAEVSDDEDEDEDEEDSELVREGFITHGDDEDDEASAPGARRDDRLHRQLDQDLNKTSEEDAQRLAKELRERYGRSSSKQYRAAAQDGYVPQRFLLPSVDTATIWGVRCRPGKEKELIRKLLKKKFNLDRAMGKKKLKILSIFQRDNYTGRIYIEAPKQSVIEKFCNGVPDIYISQKLLIPVQELPLLLKPNKSDDVALEEGSYVRIKRGIYKGDLAMVDQISENNLEVMLKIVPRLDYGKFDEIDPTTQQRKSRRPTFAHRAPPQLFNPTMALRLDQANLYKRDDRHFTYKNEDYIDGYLYKSFRIQHVETKNIQPTVEELARFGSKEGAVDLTSVSQSIKKAQAAKVTFQPGDRIEVLNGEQRGSKGIVTRTTKDIATIKLNGFTTPLEFPISTLRKIFEPGDHVTVINGEHQGDAGLVLMVEQGQVTFMSTQTSREVTITANNLSKSIDTTATSSEYALHDIVELSAKNVACIIQAGHDIFKVIDETGKVSTITKGSILSKINTARARVSSVDANGNEIKIGDTIVEKVGSRREGQVLYIQTQQIFVVSKKIVENAGVFVVNPSNVEAVASKDNMLSNKMDLSKMNPEIISKMGPPSSKTFQQPIQSRGGREVALGKTVRIRSAGYKGQLGIVKDVNGDKATVELHSKNKHITIDKHKLTYYNREGGEGITYDELVNRRGRVPQARMGPSYVSAPRNMATGGIAAGAAATSSGLSGGMTPGWSSFDGGKTPAVNAHGGSGGGGVSSWGGASTWGGQGNGGASAWGGAGGGASAWGGQGTGATSTWGGASAWGNKSSWGGASTWASGGESNGAMSTWGGTGDRSAYGGASTWGGNNNNKSTRDGGASAWGNQDDGNRSAWNNQGNKSNYGGNSTWGGH
chain 2: MSSERACMLCGIVQTTNEFNRDGCPNCQGIFEEAGVSTMECTSPSFEGLVGMCKPTKSWVAKWLSVDHSIAGMYAIKVDGRLPAEVVELLPHYKPRDGSQVE
modifications: Cy5-trimethoprim (Cy5-TMP) bound non-covalently to the DHFR tag
For B1, the 1/k-5 (average time to dissociate from elongation complexes) worked out at 56 s; the frequency of association with a DNA containing Rpb1^SNAP549, with added NTPs is 0.0094 s⁻¹; the kapp = k-5 + k6 (aggregate dissociation rate constant, pooled events) was determined as 0.021 s⁻¹; the kapp,prior (only events in which Spt4/5 left before RNApII) turned out to be 0.021 s⁻¹. This molecule gave a kapp,simul (only events in which Spt4/5 and RNApII left simultaneously) of 0.018 s⁻¹.
